Numbered stars: 1 amine (or outer) side, 2 acyl side, 3 side chain; on linkers, the order of the positions; unused ones are H or OH. Bridge positions count the residues as written; N and C are the ends. Square brackets hold non-standard residues; d marks the D form. Primed or numbered codes have the meaning given here. Ends that are not written are not given here. * marks the point of attachment. Ida = iminodiacetic acid, O=C(CN(CC(=O)[*:3])[*:1])[*:2]; PEG3′ = NH2CH2CH2(OCH2CH2)3CH2CH2CO2H (PEG3 linker); Dip = N[C@H](C(=O)O)C(c1ccccc1)c1ccccc1; Palmitoyl = CCCCCCCCCCCCCCCC(=O)*; pGlu = O=C1CC[C@@H](C(=O)O)N1; β3hP = O=C(O)C[C@@H]1CCCN1; Isovaleryl = CC(C)CC(=O)*; Isobutyryl = CC(C)C(=O)*; Octanoyl = CCCCCCCC(=O)*; βAla = NCCC(=O)O; Sar = CNCC(=O)O
T1: human ferroportin (SLC40A1) fused in frame with GFP, stably expressed in HEK293 cells (human, UniProt Q9NP59 1-571)
T1 sequence (looked up): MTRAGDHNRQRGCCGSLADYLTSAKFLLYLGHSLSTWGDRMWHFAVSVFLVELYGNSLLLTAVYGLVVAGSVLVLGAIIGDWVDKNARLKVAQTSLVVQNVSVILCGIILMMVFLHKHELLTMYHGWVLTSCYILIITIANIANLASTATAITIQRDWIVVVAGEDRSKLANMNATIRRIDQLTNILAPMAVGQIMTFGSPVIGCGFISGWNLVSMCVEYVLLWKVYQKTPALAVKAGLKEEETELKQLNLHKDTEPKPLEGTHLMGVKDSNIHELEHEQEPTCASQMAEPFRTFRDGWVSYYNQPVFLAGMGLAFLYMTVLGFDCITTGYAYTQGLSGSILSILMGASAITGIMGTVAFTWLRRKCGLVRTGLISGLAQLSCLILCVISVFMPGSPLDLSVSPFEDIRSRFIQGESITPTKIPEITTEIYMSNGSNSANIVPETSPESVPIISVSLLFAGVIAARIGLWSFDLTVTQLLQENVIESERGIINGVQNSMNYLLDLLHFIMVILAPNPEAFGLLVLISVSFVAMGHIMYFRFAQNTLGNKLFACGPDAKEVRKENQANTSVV

T2: human ferroportin (SLC40A1) fused in frame with GFP, stably expressed in HEK293 cells (human, UniProt Q9NP59 1-571)
T2 sequence (looked up): T1 sequence (looked up)

B1: Isobutyric acid-DTHFPIC1IFVC2HRSKGC2YRRC1R-NH2 (peptide)
peptide: Isobutyryl-DTHFPICIFVCHRSKGCYRRCR-NH2
modifications: disulfide 11-17, 7-21
SMILES: CC[C@H](C)[C@@H]1NC(=O)[C@@H](NC(=O)[C@@H](NC(=O)[C@@H]2CCCN2C(=O)[C@H](Cc2ccccc2)NC(=O)[C@H](Cc2c[nH]cn2)NC(=O)[C@@H](NC(=O)[C@H](CC(=O)O)NC(=O)C(C)C)[C@@H](C)O)[C@@H](C)CC)CSSC[C@@H](C(=O)N[C@@H](CCCNC(=N)N)C(N)=O)NC(=O)[C@H](CCCNC(=N)N)NC(=O)[C@H](CCCNC(=N)N)NC(=O)[C@H](Cc2ccc(O)cc2)NC(=O)[C@@H]2CSSC[C@H](NC(=O)[C@H](C(C)C)NC(=O)[C@H](Cc3ccccc3)NC1=O)C(=O)N[C@@H](Cc1c[nH]cn1)C(=O)N[C@@H](CCCNC(=N)N)C(=O)N[C@@H](CO)C(=O)N[C@@H](CCCCN)C(=O)NCC(=O)N2
B2: pGlu-THFPIC1IFVC2HRSKGC2YRRC1R-NH2 (peptide)
peptide: [pGlu]THFPICIFVCHRSKGCYRRCR-NH2
modifications: disulfide 11-17, 7-21
SMILES: CC[C@H](C)[C@@H]1NC(=O)[C@@H](NC(=O)[C@@H](NC(=O)[C@@H]2CCCN2C(=O)[C@H](Cc2ccccc2)NC(=O)[C@H](Cc2c[nH]cn2)NC(=O)[C@@H](NC(=O)[C@@H]2CCC(=O)N2)[C@@H](C)O)[C@@H](C)CC)CSSC[C@@H](C(=O)N[C@@H](CCCNC(=N)N)C(N)=O)NC(=O)[C@H](CCCNC(=N)N)NC(=O)[C@H](CCCNC(=N)N)NC(=O)[C@H](Cc2ccc(O)cc2)NC(=O)[C@@H]2CSSC[C@H](NC(=O)[C@H](C(C)C)NC(=O)[C@H](Cc3ccccc3)NC1=O)C(=O)N[C@@H](Cc1c[nH]cn1)C(=O)N[C@@H](CCCNC(=N)N)C(=O)N[C@@H](CO)C(=O)N[C@@H](CCCCN)C(=O)NCC(=O)N2
B3: Isobutyric acid-DTHFPIC1IFVC2HRSKGC2YRRC1R-NH2 (peptide)
peptide: Isobutyryl-DTHFPICIFVCHRSKGCYRRCR-NH2
modifications: disulfide 11-17, 7-21
SMILES: CC[C@H](C)[C@@H]1NC(=O)[C@@H](NC(=O)[C@@H](NC(=O)[C@@H]2CCCN2C(=O)[C@H](Cc2ccccc2)NC(=O)[C@H](Cc2c[nH]cn2)NC(=O)[C@@H](NC(=O)[C@H](CC(=O)O)NC(=O)C(C)C)[C@@H](C)O)[C@@H](C)CC)CSSC[C@@H](C(=O)N[C@@H](CCCNC(=N)N)C(N)=O)NC(=O)[C@H](CCCNC(=N)N)NC(=O)[C@H](CCCNC(=N)N)NC(=O)[C@H](Cc2ccc(O)cc2)NC(=O)[C@@H]2CSSC[C@H](NC(=O)[C@H](C(C)C)NC(=O)[C@H](Cc3ccccc3)NC1=O)C(=O)N[C@@H](Cc1c[nH]cn1)C(=O)N[C@@H](CCCNC(=N)N)C(=O)N[C@@H](CO)C(=O)N[C@@H](CCCCN)C(=O)NCC(=O)N2
B4: Hy-DTHFPC1IIFVC2HRSKGC2YWAVC1FW-NH2 (peptide)
peptide: H-DTHFPCIIFVCHRSKGCYWAVCFW-NH2
modifications: disulfide 11-17, 6-22
SMILES: CC[C@H](C)[C@@H]1NC(=O)[C@@H](NC(=O)[C@@H]2CCCN2C(=O)[C@H](Cc2ccccc2)NC(=O)[C@H](Cc2c[nH]cn2)NC(=O)[C@@H](NC(=O)[C@@H](N)CC(=O)O)[C@@H](C)O)CSSC[C@@H](C(=O)N[C@@H](Cc2ccccc2)C(=O)N[C@@H](Cc2c[nH]c3ccccc23)C(N)=O)NC(=O)[C@H](C(C)C)NC(=O)[C@H](C)NC(=O)[C@H](Cc2c[nH]c3ccccc23)NC(=O)[C@H](Cc2ccc(O)cc2)NC(=O)[C@@H]2CSSC[C@H](NC(=O)[C@H](C(C)C)NC(=O)[C@H](Cc3ccccc3)NC(=O)[C@H]([C@@H](C)CC)NC1=O)C(=O)N[C@@H](Cc1c[nH]cn1)C(=O)N[C@@H](CCCNC(=N)N)C(=O)N[C@@H](CO)C(=O)N[C@@H](CCCCN)C(=O)NCC(=O)N2

molecular target: T1, human ferroportin (SLC40A1) fused in …; test: cell-based or functional assay

Binder	Potency EC50 (nM), ferroportin-GFP internalization/degradation
Isovaleryl-DTEFPCIKFEPRSKEWVCK-NH2 (disulfide 6-18 (inferred)) [Isovaleric acid-DTEFPCIKFEPRSKEWVCK-NH2]	> 1000 nM
Isovaleryl-DTHAPCIKF[Sar]PRSKGWECK-NH2 (disulfide 6-18 (inferred)) [Isovaleric acid-DTHAPCIKF-[Sarc]-PRSKGWECK-NH2]	> 10000 nM
Isovaleryl-DTHFPCIKFEPHSKEWVCK-NH2 (not fully specified (bridges); cysteine pairing not given here) [Isovaleric acid-DTHFPCIKFEPHSKEWVCK-NH2]	80 nM
Isovaleryl-STHAPCIKFEPRSKGWECK-NH2 (disulfide 6-18 (inferred)) [Isovaleric acid-STHAPCIKFEPRSKGWECK-NH2]	> 10000 nM
Isovaleryl-DTHAPCIKFEPRSKEWECK-NH2 (not fully specified (bridges); cysteine pairing not given here) [Isovaleric acid-DTHAPCIKFEPRSKEWECK-NH2]	> 10000 nM
Isovaleryl-DTHFPCIIF[PEG3′]C-NH2 (cysteine pairing not given here) [Isovaleric acid-DTHFPCIIF-[PEG3]-C-NH2]	157 nM
Isovaleryl-SKHAPCIKFEPRSKGWECK-NH2 (disulfide 6-18 (inferred)) [Isovaleric acid-SKHAPCIKFEPRSKGWECK-NH2]	> 10000 nM
Isovaleryl-DTHFGCIKFEPRSKEWVCK-NH2 (not fully specified (bridges); cysteine pairing not given here) [Isovaleric acid-DTHFGCIKFEPRSKEWVCK-NH2]	> 1000 nM
Isovaleryl-DTHFPCIKFEPRSK(Octanoyl)EWVCK-NH2 (disulfide 6-18 (inferred)) [Isovaleric acid-DTHFPCIKFEPRS-K(octanoic acid)-EWVCK-NH2]	62 nM
Isovaleryl-DTHAPCIKFEPRSK[Sar]WECK-NH2 (disulfide 6-18 (inferred)) [Isovaleric acid-DTHAPCIKFEPRSK-[Sarc]-WECK-NH2]	> 10000 nM

molecular target: T2, human ferroportin (SLC40A1) fused in …; test: cell-based or functional assay

Binder	Potency EC50 (nM)	Potency EC50
Isovaleryl-HFPCIIFGPRSKGWVCK-NH2 (disulfide 4-16 (inferred)) [Isovaleric acid-HFPCIIFGPRSKGWVCK-NH2]	> 10000 nM	–
H-DTHFKCIIFGPRSKGWVCK-NH2 (disulfide 6-18 (inferred)) [Hy-DTHFKCIIFGPRSKGWVCK-NH2]	> 1000 nM	–
DTHFPCIKFKPRSKGWVCK (N-terminal isovaleric acid; Palm on the side chain of Lys 10; C-terminal amide) [Isovaleric acid-DTHFPCIKF-K(Palm)-PRSKGWVCK-NH2]	–	9 nM
Isovaleryl-DTHFPCIKFGPRSK(Palmitoyl)GWVCK-NH2 (disulfide 6-18 (inferred)) [Isovaleric acid-DTHFPCIKFGPRS-K(Palm)-GWVCK-NH2]	–	1 nM
H-THFPCIIFGPRSKGWVCK-NH2 (disulfide 5-17 (inferred)) [Hy-THFPCIIFGPRSKGWVCK-NH2]	> 10000 nM	–
H-HFPCIIFGPRSKGWVCK-NH2 (disulfide 4-16 (inferred)) [Hy-HFPCIIFGPRSKGWVCK-NH2]	> 10000 nM	–
B1	–	93 nM
B2	–	260 nM
H-DTHFGCIIFGPRSKGWVCK-NH2 (disulfide 6-18 (inferred)) [Hy-DTHFGCIIFGPRSKGWVCK-NH2]	> 1000 nM	–
B3	–	63 nM
H-DTHF[βAla]CIIFGPRSKGWVCK-NH2 (disulfide 6-18 (inferred)) [Hy-DTHF-[β-Ala]-CIIFGPRSKGWVCK-NH2]	> 1000 nM	–
H-DTHF[Sar]CIIFGPRSKGWVCK-NH2 (disulfide 6-18 (inferred)) [Hy-DTHF-[Sarc]-CIIFGPRSKGWVCK-NH2]	> 1000 nM	–
Isovaleryl-THFPCIIFGPRSKGWVCK-NH2 (disulfide 5-17 (inferred)) [Isovaleric acid-THFPCIIFGPRSKGWVCK-NH2]	> 10000 nM	–
Isovaleryl-DTHFPCIKFGPK(Palmitoyl)SKGWVCK-NH2 (not fully specified (bridges); cysteine pairing not given here) [Isovaleric acid-DTHFPCIKFGP-K(Palm)-SKGWVCK-NH2]	–	2 nM
H-DTHFRCIIFGPRSKGWVCK-NH2 (disulfide 6-18 (inferred)) [Hy-DTHFRCIIFGPRSKGWVCK-NH2]	> 1000 nM	–
[Ida]TH[Dip][β3hP]ICIFGPRSKGWVCM-NH2 (disulfide 7-18 (inferred)) [[Ida]-TH-[Dpa]-[bhPro]-ICIFGPRSKGWVCM-NH2]	–	17 nM
Isovaleryl-DTHF[βAla]CIIFGPRSKGWVCK-NH2 (not fully specified (bridges); cysteine pairing not given here) [Isovaleric acid-DTHF-[β-Ala]-CIIFGPRSKGWVCK-NH2]	–	264 nM
B4	> 10000 nM	–
H-DTHFPCRRFGPRSKGWVC-NH2 (disulfide 6-18 (inferred)) [Hy-DTHFPCRRFGPRSKGWVC-NH2]	> 10000 nM	–
H-DTHFPIAIFGPRSKGWVAM-NH2 [Hy-DTHFPIAIFGPRSKGWVAM-NH2]	> 10000 nM	–
